The values below come from publication PMC7686228.

For orientation: stoichiometry N means a count of units in the complex or per binding partner.

The target in experiment [1] is parDMFase large subunit expressed and purified without the small subunit (Paracoccus sp. strain DMF). Nature of the experiment: SEC; large subunit purified without the small subunit; data not shown. A general note: In gel filtration, larger molecules generally elute earlier.
For experiment [2], the target named is parDMFase α2β2 complex (the 'dimer', 200 kDa) (Paracoccus sp. strain DMF). Nature of the experiment: cryo-EM structure; purified parDMFase on ice; data set with 200 mM NaCl, tetramer (α2β2)2 reconstruction at 2.8 Å (initial mixed data set: 3.8 Å); step: dimer of α2β2 dimers.

“parDMFase large subunit expressed and purified without the small subunit (enzyme)” had a stoichiometry N in experiment [1] of 2.

In the case of “parDMFase α2β2 complex (the 'dimer', 200 kDa)”, the stoichiometry N in experiment [2] is 2.
